Source: doi:10.1101/152272, “t-Darpp is an elongated monomer that binds to calcium and is phosphorylated by cyclin-dependent kinases 1 and 5” (bioRxiv, 2017)

Biological target: the molecule itself
Test: cross-linking; glutaraldehyde 0.1% or 1% (v/v), 30 min at 25°C, then SDS-PAGE (10% gel); each protein alone and an equimolar mixture of t-Darpp and Darpp-32

B1: Darpp-32 (natural protein, UniProt Q9UD71-1 1-204, looked up)
chain: MDPKDRKKIQFSVPAPPSQLDPRQVEMIRRRRPTPAMLFRLSEHSSPEEEASPHQRASGEGHHLKSKRPNPCAYTPPSLKAVQRIAESHLQSISNLNENQASEEEDELGELRELGYPREEDEEEEEDDEEEEEEEDSQAEVLKVIRQSAGQKTTCGQGLEGPWERPPPLDESERDGGSEDQVEDPALSEPGEEPQRPSPSEPGT
notes: Darpp-32, the longer isoform encoded by PPP1R1B, with 36 more residues at the N-terminus than t-Darpp; The printed UniProt entry is the human protein; The construct is probably the whole isoform, because the tail is said to be added to the C-terminus of Darpp-32; also called recombinant Darpp-32; longer isoform of t-Darpp; source: E. coli BL21 DE3, purified (Ni-NTA)
  stoichiometry N: 2
